Where no end group is shown, it is not given here. Cy5 = Cy5 fluorophore
Tests used:
Experiment in all cases: fluorescence polarisation
LC3A(1-120) = LC3A(1-120) (human, UniProt Q9H492 1-120)
[…]1(1-117) = […]1(1-117) (human, UniProt Q9H0R8 1-117)
GABARAP(1-116) = GABARAP(1-116) (human, UniProt O95166 1-116)
LC3B(1-120) = LC3B(1-120) (human, UniProt Q9GZQ8 1-120)
[…]2(1-117) = […]2(1-117) (human, UniProt P60520 1-117)
LC3C(1-126) = LC3C(1-126) (human, UniProt Q9BXW4 1-126)

Measured: binding result

B1: p62-LIR peptide linked to a Cy5 fluorophore (peptide)
peptide: SDNSSGGDDDWTHLSSK-Cy5
binds: all assays above
